The record followed here is patent EP3623383A1 (Deutsches Krebsforschungszentrum, Stiftung des öffentlichen …, dated 2020).

Test [1] addresses T1, CD3 as expressed on Jurkat cells (CD3+) (human, UniProt P07766 23-207).
T1 construct: whole, on cells; CD3 is a complex of several chains; also called Jurkat cells expressing CD3
In words: flow cytometry on CD3+ Jurkat cells; value told of the CD3 binding part shared by V1 to V5. (A flow cytometer gives signals particle by particle.)

The target in test [2] is T2, His tagged, recombinant FLT3 protein (Sino Biologicals) (human, UniProt P36888 27-541, limits assumed).
T2 construct: also called soluble recombinant FLT3 protein; not shown: His tag
T2 sequence (looked up): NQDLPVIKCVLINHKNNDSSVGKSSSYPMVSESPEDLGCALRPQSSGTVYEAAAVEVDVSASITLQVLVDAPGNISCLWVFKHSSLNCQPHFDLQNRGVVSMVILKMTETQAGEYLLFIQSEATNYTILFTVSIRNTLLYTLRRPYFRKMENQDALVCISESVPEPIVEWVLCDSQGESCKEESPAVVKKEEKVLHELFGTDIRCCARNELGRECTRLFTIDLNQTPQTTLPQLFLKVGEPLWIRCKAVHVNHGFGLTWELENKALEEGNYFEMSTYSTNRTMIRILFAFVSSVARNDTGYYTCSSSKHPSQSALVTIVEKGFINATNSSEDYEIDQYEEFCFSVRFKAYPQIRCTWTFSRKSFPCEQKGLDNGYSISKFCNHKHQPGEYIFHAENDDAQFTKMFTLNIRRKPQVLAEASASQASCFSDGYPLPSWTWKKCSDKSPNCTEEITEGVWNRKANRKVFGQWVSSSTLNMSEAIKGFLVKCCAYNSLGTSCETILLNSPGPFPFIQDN
The test can be described thus: SPR (Biacore X); antibody captured on protein A chip, His-tagged FLT3 in solution. On the technique in general: In SPR one partner is held on a chip, and binding of the other changes the refractive index at the surface.

T1 sequence (P07766 23-207): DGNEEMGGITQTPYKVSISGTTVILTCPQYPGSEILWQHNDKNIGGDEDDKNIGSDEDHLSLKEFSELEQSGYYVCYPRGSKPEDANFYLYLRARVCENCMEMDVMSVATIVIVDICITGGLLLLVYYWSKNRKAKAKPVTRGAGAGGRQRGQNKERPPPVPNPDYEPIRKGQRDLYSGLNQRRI

B1: V2-V6 (CC-2 variant 2, bispecific FLT3xCD3 IgGsc antibody) (bispecific antibody)
heavy: QVQLVQSGAEVKKPGGSLRLSCAASGYTFTSYWMHWVRQAPGQGLEWIGEIDPSDSYTDYAQKFKDRVTISRDTSKNTLYLQLSSLRAEDTAVYYCARAITTTPFDFWGQGTLVTVSSASTKGPSVFPLAPSSKSTSGGTAALGCLVKDYFPEPVTVSWNSGALTSGVHTFPAVLQSSGLYSLSSVVTVPSSSLGTQTYICNVNHKPSNTKVDKKVEPKSCDKTHTCPPCPAPPVAGPSVFLFPPKPKDTLMISRTPEVTCVVVGVSHEDPEVKFNWYVDGVEVHNAKTKPREEQYNSTYRVVSVLTVLHQDWLNGKEYKCKVSNKQLPSPIEKTISKAKGQPREPQVYTLPPSRDELTKNQVSLTCLVKGFYPSDIAVEWESNGQPENNYKTTPPVLDSDGSFFLYSKLTVDKSRWQQGNVFSCSVMHEALHNHYTQKSLSLSPGKSGDIQMTQSPSSLSASVGDRVTITCRASQDIRNYLNWYQQKPGKAPKLLIYYTSRLESGVPSRFSGSGSGTDYTLTISSLQPEDFATYYCQQGNTLPWTFGQGTKVEIKGGGGSGGGGSGGGGSEVQLVESGGGLVQPGGSLRLSCAASGYSFTGYTMNWVRQAPGKGLEWVALINPYKGVSTYNQKFKDRFTISVDKSKNTAYLQMNSLRAEDTAVYYCARSGYYGDSDWYFDVWGQGTLVTVSS
light: EIVMTQSPATLSVSPGERATLSCRASQSISNNLHWYQQKPGQAPRLLIKYASQSISGIPARFSGSGSGTEFTLTISSLQSEDFAVYFCQQSNTWPYTFGGGTKLEIKTVAAPSVFIFPPSDEQLKSGTASVVCLLNNFYPREAKVQWKVDNALQSGNSQESVTEQDSKDSTYSLSSTLTLSKADYEKHKVYACEVTHQGLSSPVTKSFNRGEC
notes: IgGsc format, Fc-attenuated; also called Version 2; Humanized 4G8 FLT3 variable region Variant 2 with V6 CD3 scFv
As usually defined, the EC50 is the concentration giving half of the maximal effect. Read a low EC50 as an effect from little substance. A word on the Kd: it is the equilibrium constant for the complex coming apart. As a reminder, the koff is the rate constant with which the complex falls apart. In general, kon refers to the rate constant with which the complex forms. As for B1, the EC50 in test [1] was approximately 0.01 µM. In test [2], the Kd worked out at 88 µM, the koff was 0.0318 s⁻¹ and the on-rate (kon) was 540 M⁻¹ s⁻¹.

B2: V1-V6 (CC-2 variant 1, bispecific FLT3xCD3 IgGsc antibody) (bispecific antibody)
heavy: QVQLVQSGAEVKKPGGSLRLSCAASGYTFTSYWMHWVRQAPGQGLEWIGEIDPSDSYTDYAQKFKDRVTISRDTSKNTLYLQLSSLRAEDTAVYYCARAITTTPFDFWGQGTLVTVSSASTKGPSVFPLAPSSKSTSGGTAALGCLVKDYFPEPVTVSWNSGALTSGVHTFPAVLQSSGLYSLSSVVTVPSSSLGTQTYICNVNHKPSNTKVDKKVEPKSCDKTHTCPPCPAPPVAGPSVFLFPPKPKDTLMISRTPEVTCVVVGVSHEDPEVKFNWYVDGVEVHNAKTKPREEQYNSTYRVVSVLTVLHQDWLNGKEYKCKVSNKQLPSPIEKTISKAKGQPREPQVYTLPPSRDELTKNQVSLTCLVKGFYPSDIAVEWESNGQPENNYKTTPPVLDSDGSFFLYSKLTVDKSRWQQGNVFSCSVMHEALHNHYTQKSLSLSPGKSGDIQMTQSPSSLSASVGDRVTITCRASQDIRNYLNWYQQKPGKAPKLLIYYTSRLESGVPSRFSGSGSGTDYTLTISSLQPEDFATYYCQQGNTLPWTFGQGTKVEIKGGGGSGGGGSGGGGSEVQLVESGGGLVQPGGSLRLSCAASGYSFTGYTMNWVRQAPGKGLEWVALINPYKGVSTYNQKFKDRFTISVDKSKNTAYLQMNSLRAEDTAVYYCARSGYYGDSDWYFDVWGQGTLVTVSS
light: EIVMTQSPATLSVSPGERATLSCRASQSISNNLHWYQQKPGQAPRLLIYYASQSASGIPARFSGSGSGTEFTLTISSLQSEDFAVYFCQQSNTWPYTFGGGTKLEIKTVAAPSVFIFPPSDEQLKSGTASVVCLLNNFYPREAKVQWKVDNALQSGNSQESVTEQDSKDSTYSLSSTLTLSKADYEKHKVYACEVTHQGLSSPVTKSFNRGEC
notes: also called Version 1; Humanized 4G8 FLT3 variable region Variant 1 with V6 CD3 scFv
Molecule B2 displayed an EC50 in test [1] of approximately 0.01 µM. In test [2], the Kd turned out to be 63 µM, the koff came to 0.022 s⁻¹ and the on-rate (kon) was found to be 489 M⁻¹ s⁻¹.

B3: V5-V6 (CC-2 variant 5, bispecific FLT3xCD3 IgGsc antibody) (bispecific antibody)
heavy: QVQLVQSGAEVKKPGGSLRLSCAASGYTFTSYWMHWVRQAPGQGLEWIGEIDPSDSYKDYNQKFKDRVTISRDTSKNTLYLQLSSLRAEDTAVYYCARAITTTPFDFWGQGTLVTVSSASTKGPSVFPLAPSSKSTSGGTAALGCLVKDYFPEPVTVSWNSGALTSGVHTFPAVLQSSGLYSLSSVVTVPSSSLGTQTYICNVNHKPSNTKVDKKVEPKSCDKTHTCPPCPAPPVAGPSVFLFPPKPKDTLMISRTPEVTCVVVGVSHEDPEVKFNWYVDGVEVHNAKTKPREEQYNSTYRVVSVLTVLHQDWLNGKEYKCKVSNKQLPSPIEKTISKAKGQPREPQVYTLPPSRDELTKNQVSLTCLVKGFYPSDIAVEWESNGQPENNYKTTPPVLDSDGSFFLYSKLTVDKSRWQQGNVFSCSVMHEALHNHYTQKSLSLSPGKSGDIQMTQSPSSLSASVGDRVTITCRASQDIRNYLNWYQQKPGKAPKLLIYYTSRLESGVPSRFSGSGSGTDYTLTISSLQPEDFATYYCQQGNTLPWTFGQGTKVEIKGGGGSGGGGSGGGGSEVQLVESGGGLVQPGGSLRLSCAASGYSFTGYTMNWVRQAPGKGLEWVALINPYKGVSTYNQKFKDRFTISVDKSKNTAYLQMNSLRAEDTAVYYCARSGYYGDSDWYFDVWGQGTLVTVSS
light: EIVMTQSPATLSVSPGERATLSCRASQSISNNLHWYQQKPGQAPRLLIKYASQSISGIPARFSGSGSGTEFTLTISSLQSEDFAVYFCQQSNTWPYTFGGGTKLEIKTVAAPSVFIFPPSDEQLKSGTASVVCLLNNFYPREAKVQWKVDNALQSGNSQESVTEQDSKDSTYSLSSTLTLSKADYEKHKVYACEVTHQGLSSPVTKSFNRGEC
notes: IgGsc format, Fc-attenuated; also called Version 5; Humanized 4G8 FLT3 variable region Variant 5 with V6 CD3 scFv
B3 gave an EC50 in test [1] of approximately 0.01 µM. Moreover, in test [2], the Kd amounted to 0.16 µM, the dissociation rate constant (koff) is 0.00449 s⁻¹ and the kon is 29600 M⁻¹ s⁻¹.

B4: V3-V6 (CC-2 variant 3, bispecific FLT3xCD3 IgGsc antibody) (bispecific antibody)
heavy: QVQLVQSGAEVKKPGASVKVSCKASGYTFTSYWMHWVRQAPGQGLEWIGEIDPSDSYKDYNQKFKDRVTMTRDTSTSTVYMELSSLRSEDTAVYYCARAITTTPFDFWGQGTTVTVSSASTKGPSVFPLAPSSKSTSGGTAALGCLVKDYFPEPVTVSWNSGALTSGVHTFPAVLQSSGLYSLSSVVTVPSSSLGTQTYICNVNHKPSNTKVDKKVEPKSCDKTHTCPPCPAPPVAGPSVFLFPPKPKDTLMISRTPEVTCVVVGVSHEDPEVKFNWYVDGVEVHNAKTKPREEQYNSTYRVVSVLTVLHQDWLNGKEYKCKVSNKQLPSPIEKTISKAKGQPREPQVYTLPPSRDELTKNQVSLTCLVKGFYPSDIAVEWESNGQPENNYKTTPPVLDSDGSFFLYSKLTVDKSRWQQGNVFSCSVMHEALHNHYTQKSLSLSPGKSGDIQMTQSPSSLSASVGDRVTITCRASQDIRNYLNWYQQKPGKAPKLLIYYTSRLESGVPSRFSGSGSGTDYTLTISSLQPEDFATYYCQQGNTLPWTFGQGTKVEIKGGGGSGGGGSGGGGSEVQLVESGGGLVQPGGSLRLSCAASGYSFTGYTMNWVRQAPGKGLEWVALINPYKGVSTYNQKFKDRFTISVDKSKNTAYLQMNSLRAEDTAVYYCARSGYYGDSDWYFDVWGQGTLVTVSS
light: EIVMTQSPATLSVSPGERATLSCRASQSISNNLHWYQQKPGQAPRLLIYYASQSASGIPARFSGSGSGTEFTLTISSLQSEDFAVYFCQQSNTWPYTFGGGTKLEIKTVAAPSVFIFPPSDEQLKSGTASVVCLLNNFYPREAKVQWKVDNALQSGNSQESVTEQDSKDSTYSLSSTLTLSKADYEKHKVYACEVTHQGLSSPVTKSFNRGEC
notes: also called Version 3; Humanized 4G8 FLT3 variable region Variant 3 with V6 CD3 scFv
Regarding B4, the EC50 in test [1] was approximately 0.01 µM. Also, in test [2], the Kd turned out to be 87 µM, the koff was 0.0233 s⁻¹ and the kon is 276 M⁻¹ s⁻¹.

B5: V4-V6 (CC-2 variant 4, bispecific FLT3xCD3 IgGsc antibody) (bispecific antibody)
heavy: QVQLVQSGAEVKKPGASVKVSCKASGYTFTSYWMHWVRQAPGQGLEWIGEIDPSDSYKDYNQKFKDRVTMTRDTSTSTVYMELSSLRSEDTAVYYCARAITTTPFDFWGQGTTVTVSSASTKGPSVFPLAPSSKSTSGGTAALGCLVKDYFPEPVTVSWNSGALTSGVHTFPAVLQSSGLYSLSSVVTVPSSSLGTQTYICNVNHKPSNTKVDKKVEPKSCDKTHTCPPCPAPPVAGPSVFLFPPKPKDTLMISRTPEVTCVVVGVSHEDPEVKFNWYVDGVEVHNAKTKPREEQYNSTYRVVSVLTVLHQDWLNGKEYKCKVSNKQLPSPIEKTISKAKGQPREPQVYTLPPSRDELTKNQVSLTCLVKGFYPSDIAVEWESNGQPENNYKTTPPVLDSDGSFFLYSKLTVDKSRWQQGNVFSCSVMHEALHNHYTQKSLSLSPGKSGDIQMTQSPSSLSASVGDRVTITCRASQDIRNYLNWYQQKPGKAPKLLIYYTSRLESGVPSRFSGSGSGTDYTLTISSLQPEDFATYYCQQGNTLPWTFGQGTKVEIKGGGGSGGGGSGGGGSEVQLVESGGGLVQPGGSLRLSCAASGYSFTGYTMNWVRQAPGKGLEWVALINPYKGVSTYNQKFKDRFTISVDKSKNTAYLQMNSLRAEDTAVYYCARSGYYGDSDWYFDVWGQGTLVTVSS
light: EIVMTQSPATLSVSPGERATLSCRASQSISNNLHWYQQKPGQAPRLLIKYASQSISGIPARFSGSGSGTEFTLTISSLQSEDFAVYFCQQSNTWPYTFGGGTKLEIKTVAAPSVFIFPPSDEQLKSGTASVVCLLNNFYPREAKVQWKVDNALQSGNSQESVTEQDSKDSTYSLSSTLTLSKADYEKHKVYACEVTHQGLSSPVTKSFNRGEC
notes: IgGsc format, Fc-attenuated; also called Version 4; variant V4
For the molecule B5, the concentration giving a half-maximal response (EC50) in test [1] is approximately 0.01 µM. In test [2], the Kd turned out to be 0.48 µM, the dissociation rate constant (koff) was determined as 0.00887 s⁻¹ and the association rate constant (kon) is 18800 M⁻¹ s⁻¹.
